The data set deals with T1, His-EmrR (Chromobacterium violaceum ATCC 12472) (UniProt Q7P000).
T1 sequence: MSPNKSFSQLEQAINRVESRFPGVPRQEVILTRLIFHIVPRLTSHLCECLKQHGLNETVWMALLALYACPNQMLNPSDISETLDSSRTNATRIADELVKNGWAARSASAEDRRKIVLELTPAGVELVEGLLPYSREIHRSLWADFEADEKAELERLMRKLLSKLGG
The data set is described as follows: EMSA. The settings on record: 32P-labelled PCR probes, 100-300 nM DTT-reduced His-EmrR, interaction buffer as in da Silva Neto 2012 and Previato-Mello 2017 (composition, pH …). (In general: A gel shift assay detects complexes by their altered migration in electrophoresis.)
For “TTGGCAGAGCTCCAATGATGCATGTCGGTCCGGACGTGATTAATCTGGTGATAATCACCCGGGTTATTATTCGAGTGAAAAAGCGCGGGCTCAGCCAAGCTTATA (double strand) [emrCAB promoter]”, the binding entry was “binds”.
For “TTGGCACTGCAGCAAATAAGCCTGCCCGTGGCGGCGCCTCCCCCGCCGCCACTCTCCCTCCTTCCCCCGTCTCGCCGGCCCTTCGGCTGCCGCCGTCTACCGGCCGCCAATCTAACCCATTGTCATTTCGCCACACTTTTCGCCAGCATTTCATTAGCAAGGTTATTATTACTTGCAAAATAATACCGCACGTTACTAAAATGGCCGCATGAGTCCAAACAAGAAGCTTATA (double strand) [emrR promoter]” the value was “binds”.
For “TTGGATCCGAAGGCCAGGCGCTGCATCTGGGCGGCGCCCACCCGAGCGCGCTGGAAAAACTGCTGTTCCCGCGGCTGGAAACCAGCCAGCTGCTGGGCGGCGGCAGCCAGCCGCTGCGGCTGACGCTGAGCTGGCAACAGGGTTGGGCGCAGATCGGCCTGTTCGAATGGACGGTGTGGCTGCTGCTGTCGCTGCTGCTGGGCCTGGGCATAGGCCTGGCCGGCTTCAGCTTCGTGCGCAGCAGCGACAGCTGCAGTAAT (double strand) [CV_0208 coding region]” the value was “binds more weakly”.

The record behind these values is PMC6249546.
